US20180148485A1 (Pieris, published 2018)
Read-outs that look alike come from different tables or passages of the source.

B1: CD137-binding lipocalin mutein of SEQ ID NO: 26 (designed binder)
chain: QDSTSDLIPAPPLSKVPLQQNFQDNQFHGKWYVVGQAGNIRLREDKDPIKMMATIYELKEDKSYDVTMVKFDDKKCMYDIWTFVPGSQPGEFTLGKIKSFPGHTSSLVRVVSTNYNQHAMVFFKFVFQNREEFYITLYGRTKELTSELKENFIRFSKSLGLPENHIVFPVPIDQCIDG
B2: GPC3-binding lipocalin mutein of SEQ ID NO: 10 (designed binder)
chain: QDSTSDLIPAPPLSKVPLQQNFQDNQFQGKWYVVGRAGNVGLREDKDPPKMWATIYELKEDKSYDVTNVRFARKKCTYSIGTFVPGSQPGEFTLGQIKSEPGGTANLVRVVSTNYNQHAMVFFKEVYQNREIFFIILYGRTKELTSELKENFIRFSKSLGLPENHIVFPVPIDQCIDG
notes: hNGAL-based lipocalin mutein; also called GPC3 lipocalin mutein

How the values were obtained:
[1] = biological target: T1, recombinant human CD137-Fc fusion protein (#838-4B-100, R&D Systems) (human, UniProt Q07011 24-186); assay: ELISA, CD137-Fc coated, as described in Example 3
T1 construct: also called Fc-fusion of human CD137; not shown: Fc part of the bought fusion protein, not described

[2] = biological target: T1, recombinant human CD137-Fc fusion …; assay: SPR, biotinylated CD137-Fc captured on CAP chip, in analogy to Example 6
Protocol: Biotinlated CD137-Fc was immobilized on sensor chip and binding of the fusion polypeptides and lipocalin mutein was analyzed at different concentrations.

[3] = biological target: T1, recombinant human CD137-Fc fusion …; assay: ELISA, CD137-Fc coated, as described in Example 3; remark: listed apart in the source
Description: The data was fitted with a 1:1 binding model with EC50 value and the maximum signal as free parameters, and a slope that was fixed to unity.

[4] = biological target: T1, recombinant human CD137-Fc fusion …; assay: SPR, CD137-Fc captured by anti-human Fc antibody on CM5 chip, 1:1 model
Protocol: Binding affinities of the CD137-binding lipocalin mutein and the bispecific polypeptides of SEQ ID NO: 46 and SEQ ID NO: 47 to recombinant human CD137-Fc fusion protein (#838-4B-100, R&D Systems) were determined by Surface Plasmon Resonance using a Biacore T200 instrument (GE Healthcare) in analogy to Example 6. Prior to the SPR affinity assay, a CM5 sensor chip was derivatized with an anti-human Fc antibody using the Human Antibody Capture Kit (GE Healthcare # BR-1008-39) according to the manufacturer's instructions.
Four different concentrations (1000 nM, 200 nM, 40 nM and 8 nM) of the bispecific polypeptides were prepared in running buffer (10 mM HEPES, 150 mM NaCl, 0.05% v/v Surfactant P20, 3 mM EDTA, pH 7.4 (GE Healthcare)) and applied to the chip surface. Applying a flow rate of 30 μL/min, the sample contact time was 180 s and dissociation time was 600 s. All measurements were performed at 25° C. […] Prior to the protein measurements three regeneration cycles were performed for conditioning purposes. Data were evaluated with Biacore T200 Evaluation software (V 2.0). Double referencing was used and the 1:1 Binding model was used to fit the raw data.

[5] = biological target: T2, recombinant human GPC3 (R&D Systems #2119-GP-050/CF) (human, UniProt P51654 25-559); assay: SPR, biotinylated GPC3 captured on CAP chip, 1:1 model, apparent affinity
T2 construct: also called Glypican-3; biotinylated human GPC3
Protocol: Biotinlated GPC3 was immobilized on a sensor chip and binding of the fusion polypeptides and lipocalin mutein was analyzed at different concentrations.

[6] = biological target: T2, recombinant human GPC3 (R&D Systems …); assay: SPR (Biacore T200), biotinylated GPC3 captured on CAP chip, 1:1 model, apparent affinity
Protocol: In the SPR affinity assay, biotinylated GPC3 was captured on a sensor chip (“CAP chip”) using the Biotin CAPture Kit (GE Healthcare): sensor Chip CAP is pre-immobilized with an ssDNA oligo. Undiluted Biotin CAPture Reagent (streptavidin conjugated with the complementary ss-DNA oligo) was applied at a flow rate of 2 μL/min for 300 s. For analysis of the lipocalin mutein, biotinylated GPC3 at a concentration of 1 μg/mL was used and 0.25 μg/mL of biotinylated GPC3 for the fusions proteins. The biotinylated GPC3 was applied for 300 s at a flow rate of 5 μL/min. GPC3 was biotinylated by incubation with EZ-Link® NHS-PEG4-Biotin (5-fold molar excess (Thermo Scientific)) during two hours at room temperature. The excess of non-reacted biotin reagent was removed by loading the reaction mixture onto a Zeba™ Spin Desalting Plate (Thermo Scientific). The reference channel was loaded with Biotin CAPture Reagent only.
Applying a flow rate of 30 μL/min, the sample contact time was 180 s and dissociation time was 1200 s. All measurements were performed at 25° C. […] Prior to the protein measurements three regeneration cycles were performed for conditioning purposes. Data were evaluated with Biacore T200 Evaluation software (V 2.0). Double referencing was used and the 1:1 Binding model was used to fit the raw data.

[7] = biological target: T2, recombinant human GPC3 (R&D Systems …); assay: ELISA, GPC3 coated, anti-NGAL-HRP detection
Description: GPC3 was coated on a microtiter plate and the tested molecules were titrated. Bound molecules were detected via an HRP-labeled anti-human NGAL-specific antibody as described in Example 12. The data was fitted with a 1:1 binding model with EC50 value and the maximum signal as free parameters, and a slope that was fixed to unity.

[8] = biological target: T2, recombinant human GPC3 (R&D Systems …); assay: ELISA, GPC3 coated, anti-NGAL-HRP detection; remark: listed apart in the source
Description: GPC3 was coated on a microtiter plate and the tested molecules were titrated. […] The data was fitted with a 1:1 binding model with EC50 value and the maximum signal as free parameters, and a slope that was fixed to unity.

[9] = biological target: T2, recombinant human GPC3 (R&D Systems …); assay: ELISA, GPC3 coated, anti-NGAL-HRP detection; remark: listed apart in the source
Protocol: The target was dissolved in PBS (1 μg/mL) and coated overnight on microtiter plates at 4° C. The plate was washed after each incubation step with […] PBS supplemented with 0.1% (v/v) Tween 20 (PBS-T) five times. The plates were blocked with 2% BSA (w/v) in PBS-T for 1 h at room temperature and subsequently washed. Different concentrations of the lipocalin mutein (SEQ ID NO: 10) or the fusion polypeptides were added to the wells and incubated for 1 h at room temperature, followed by a wash step. Bound fusion protein or lipocalin mutein was detected after incubation with 1:1000 diluted anti-human NGAL antibody conjugated to HRP in PBS-T supplemented with 2% (w/v) BSA (PBS-TB). After an additional wash step, fluorogenic HRP substrate (QuantaBlu, Thermo) was added to each well and the fluorescence intensity was detected using a fluorescence microplate reader.
The result of the experiment is depicted in FIG. 2, together with the fit curves resulting from a 1:1 binding sigmoidal fit, where the EC50 value and the maximum signal were free parameters, and the slope was fixed to unity.

T2 sequence (P51654 25-559 limits assumed): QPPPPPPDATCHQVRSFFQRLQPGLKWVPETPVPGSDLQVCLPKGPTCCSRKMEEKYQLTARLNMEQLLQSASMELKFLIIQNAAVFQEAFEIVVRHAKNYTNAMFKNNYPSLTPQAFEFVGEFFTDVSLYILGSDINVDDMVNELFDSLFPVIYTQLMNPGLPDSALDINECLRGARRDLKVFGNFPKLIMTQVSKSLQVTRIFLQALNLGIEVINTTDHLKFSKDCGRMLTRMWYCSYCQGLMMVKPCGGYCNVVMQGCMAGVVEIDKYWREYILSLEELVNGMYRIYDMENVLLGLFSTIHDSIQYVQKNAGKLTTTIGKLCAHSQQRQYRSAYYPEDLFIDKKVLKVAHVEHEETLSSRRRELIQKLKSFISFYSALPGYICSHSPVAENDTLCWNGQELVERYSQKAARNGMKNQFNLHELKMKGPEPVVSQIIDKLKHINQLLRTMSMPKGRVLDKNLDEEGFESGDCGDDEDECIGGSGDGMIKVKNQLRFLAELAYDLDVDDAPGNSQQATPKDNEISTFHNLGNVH

| Binder | EC50 [1] [nM] | Kd [2] [nM] | EC50 [3] [nM] | Kd [4] [nM] | Kd [5] [nM] | Kd [6] [nM] | EC50 [7] [nM] | EC50 [8] [nM] | EC50 [9] [nM] |
| --- | --- | --- | --- | --- | --- | --- | --- | --- | --- |
| B1 | 0.28 | 2.3 | 0.43 | 0.0023 | – | – | – | – | – |
| B2 | – | – | – | – | 0.033 | 0.012 | 0.55 | 0.32 | 0.55 |
